According to CN108948199A (BOAOXIN BIOTECHNOLOGY NANJING CO LTD, dated 2018):

Assays:
[1] = target: T1, 生物素标记人CSF1R Fc蛋白 (human, UniProt P07333 20-512, biotin-labelled (site not stated)); assay: binding assays of Example 2 (capture ELISA with biotin-labelled human CSF1R Fc; flow cytometry on 293F cells expressing human CSF1R), summarised in Table 2
T1 construct: range 20-512; also called CSF1R Fc biotin; 人CSF1R抗原; not shown: human IgG1 Fc tag at the C-terminus

[2] = target: T2, 重组人CSF1R带his标签的蛋白 (human, UniProt P07333 20-512); assay: ELISA screen of hybridoma supernatant on coated human CSF1R-his
T2 construct: Bought protein used as coating antigen for hybridoma screening; also called 人CSF1R-his; CSF1R-his蛋白抗原; not shown: his tag
T2 sequence (P07333 20-512 limits assumed): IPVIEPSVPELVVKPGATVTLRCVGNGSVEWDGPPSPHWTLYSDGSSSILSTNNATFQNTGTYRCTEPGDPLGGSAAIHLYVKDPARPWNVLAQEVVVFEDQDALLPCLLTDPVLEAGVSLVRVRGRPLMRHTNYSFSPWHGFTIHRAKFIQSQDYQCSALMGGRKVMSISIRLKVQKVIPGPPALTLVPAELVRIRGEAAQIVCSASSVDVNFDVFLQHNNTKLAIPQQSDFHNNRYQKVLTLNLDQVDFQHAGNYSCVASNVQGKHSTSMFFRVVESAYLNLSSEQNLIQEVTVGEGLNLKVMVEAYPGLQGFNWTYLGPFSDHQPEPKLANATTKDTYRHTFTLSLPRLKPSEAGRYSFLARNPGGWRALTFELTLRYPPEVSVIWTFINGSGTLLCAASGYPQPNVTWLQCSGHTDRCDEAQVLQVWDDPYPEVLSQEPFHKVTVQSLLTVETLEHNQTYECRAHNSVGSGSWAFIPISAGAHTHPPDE

T1 sequence (P07333 20-512 limits assumed): as above

B1: 1G6 抗人CSF-1R小鼠单克隆抗体 (antibody, V domains shown)
VH: QIQLVQSGPELKKPGETVKISCKASGYTFIIYGMNWVKQTPGRGLKWMGWINTYTGEPTYADDFKGRFAFSLETSASTASLQINNLKNEDTATYFCAREVYDGYPSHYAMDYWGQGTSVTVSS
VL: DIVMTQAAPSVPVTPGESVSISCRSSKSLLHSNGNTYLYWFLQRPGQSPQLLIYWMSNLASGVPDRFSGSGSGTAFTLRISRVEAEDVGVYYCLQHLEYPYTFGGGTKLEIK
notes: also called 1G6抗体; 本发明的抗人CSF-1R单克隆抗体
binding result [1]: binds
binding result [2]: binds
